B1: T017000031 (bispecific antibody)
chain: EVQLVESGGGLVQPGGSLRLSCITSGETFKINIWGWYRQAPGKQRELVASLTIGGATNYADSVKGRFTISEDSAKNTVYLQMNSLKPEDTAVYFCNAKSRLYPYDYWGQGTLVTVSSGGGGSGGGGSGGGGSGGGGSGGGGSGGGGSGGGGSEVQLVESGGGLVQPGGSLRLSCTFSGGTFSSYTMGWFRQAPGKEREFVAEVRWGGVTTYSNSLKDRFSISEDSVKNAVYLQMNSLKPEDTAVYYCAAVRQMYMTVVPDYWGQGTLVTVSSGAADYKDHDGDYKDHDIDYKDDDDKGAAHHHHHH
notes: TCR x CD20 bispecific Nanobody construct (cluster B); entry includes the FLAG3-HIS6 tag; also called T0170055C07-35GS-20CD019C07-FLAG3-HIS6
B2: T017000042 (bispecific antibody)
chain: EVQLVESGGGLVQPGGSLRLSCAASGDVHKINILGWYRQAPAKEREMVAHITIGDATDYADSAKGRFTISRDEAKNMVYLQMNSLKPEDTAVYFCRAYSRIYPYNYWGQGTLVTVSSGGGGSGGGGSGGGGSGGGGSGGGGSGGGGSGGGGSEVQLVESGGGLVQPGGSLRLSCTFSGGTFSSYTMGWFRQAPGKEREFVAEVRWGGVTTYSNSLKDRFSISEDSVKNAVYLQMNSLKPEDTAVYYCAAVRQMYMTVVPDYWGQGTLVTVSSGAADYKDHDGDYKDHDIDYKDDDDKGAAHHHHHH
notes: TCR x CD20 bispecific Nanobody construct (cluster A); entry includes the FLAG3-HIS6 tag; also called T0170055A02-35GS-20CD019C07-FLAG3-HIS6
B3: T017000074 (bispecific antibody)
chain: B2 chain with A23V, I33F, A42G, M47K, T52S, A56Q, A74S, Y98F, N105D
notes: TCR x CD20 bispecific Nanobody construct (cluster A); entry includes the FLAG3-HIS6 tag; also called T0170056G05-35GS-20CD019C07-FLAG3-HIS6
B4: T017000038 (bispecific antibody)
chain: EVQLVESGGGLVQPGGSLRLSCAASGEIGRINFYRWYRQAPGNQREVVATITIADKTDYADSAKGRFTISRDESRNMVYLQMSSLKPEDTAVYFCHAGSRLYPYDYWGQGTLVTVSSGGGGSGGGGSGGGGSGGGGSGGGGSGGGGSGGGGSEVQLVESGGGLVQPGGSLRLSCTFSGGTFSSYTMGWFRQAPGKEREFVAEVRWGGVTTYSNSLKDRFSISEDSVKNAVYLQMNSLKPEDTAVYYCAAVRQMYMTVVPDYWGQGTLVTVSSGAADYKDHDGDYKDHDIDYKDDDDKGAAHHHHHH
notes: TCR x CD20 bispecific Nanobody construct (cluster C); entry includes the FLAG3-HIS6 tag; also called T0170061G01-35GS-20CD019C07-FLAG3-HIS6
B5: T017000055 (bispecific antibody)
chain: EVQLVESGGGLVQPGGSLRLSCTFSGGTFSSYTMGWFRQAPGKEREFVAEVRWGGVTTYSNSLKDRFSISEDSVKNAVYLQMNSLKPEDTAVYYCAAVRQMYMTVVPDYWGQGTLVTVSSGGGGSGGGGSGGGGSGGGGSGGGGSGGGGSGGGGSEVQLVESGGGLVQPGGSLRLSCAASGDVHKINILGWYRQAPAKEREMVAHITIGDATDYADSAKGRFTISRDEAKNMVYLQMNSLKPEDTAVYFCRAYSRIYPYNYWGQGTLVTVSSGAADYKDHDGDYKDHDIDYKDDDDKGAAHHHHHH
notes: entry includes the FLAG3-HIS6 tag; also called 20CD019C07-35GS-T0170055A02-FLAG3-HIS6
B6: T017000051 (bispecific antibody)
chain: EVQLVESGGGLVQPGGSLRLSCTFSGGTFSSYTMGWFRQAPGKEREFVAEVRWGGVTTYSNSLKDRFSISEDSVKNAVYLQMNSLKPEDTAVYYCAAVRQMYMTVVPDYWGQGTLVTVSSGGGGSGGGGSGGGGSGGGGSGGGGSGGGGSGGGGSEVQLVESGGGLVQPGGSLRLSCAASGEIGRINFYRWYRQAPGNQREVVATITIADKTDYADSAKGRFTISRDESRNMVYLQMSSLKPEDTAVYFCHAGSRLYPYDYWGQGTLVTVSSGAADYKDHDGDYKDHDIDYKDDDDKGAAHHHHHH
notes: CD20 x TCR bispecific Nanobody construct (cluster C); entry includes the FLAG3-HIS6 tag; also called 20CD019C07-35GS-T0170061G01-FLAG3-HIS6
B7: T0170061G01 (VHH)
VHH: EVQLVESGGGLVQPGGSLRLSCAASGEIGRINFYRWYRQAPGNQREVVATITIADKTDYADSAKGRFTISRDESRNMVYLQMSSLKPEDTAVYFCHAGSRLYPYDYWGQGTQVTVSS
notes: Monovalent anti-TCR Nanobody, cluster C; expressed in E. coli as triple Flag, His6-tagged protein; also called T0170PMP061G01; not shown: C-terminal triple Flag-His6 tag of the E. coli-expressed monovalent
B8: T017000107 (other)
chain: EVQLVESGGGLVQAGGSLRLSCAASGRTFSSYVMGWFRQATGKEREFVATIAWDSGSTYYADSVKGRFTISRDNAKNTVHLQMNSLKPEDTAVYYCAASYNVYYNNYYYPISRDEYDYWGQGTLVTVSSGGGGSGGGGSGGGGSGGGGSGGGGSGGGGSGGGGSEVQLVESGGGSVQAGGSLRLSCAASGDTYGSYWMGWFRQAPGKEREGVAAINRGGGYTVYADSVKGRFTISRDTAKNTVYLQMNSLRPDDTADYYCAASGVLGGLHEDWFNYWGQGTLVTVSSGGGGSGGGGSGGGGSGGGGSGGGGSGGGGSGGGGSEVQLVESGGGLVQPGGSLRLSCVASGDVHKINFLGWYRQAPGKEREKVAHISIGDQTDYADSAKGRFTISRDESKNMVYLQMNSLKPEDTAVYFCRAFSRIYPYDYWGQGTLVTVSSGAADYKDHDGDYKDHDIDYKDDDDKGAAHHHHHH
notes: EGFR x CEACAM5 x TCR multispecific Nanobody construct; entry includes the FLAG3-HIS6 tag; also called EGFR038G07-35GS-NbCEA5-35GS-T0170056G05-FLAG3-HIS6

Where a chain is given by its changes, count along the chain named.

For the first experiment, the target named is T1, human CD20 on cells (human, UniProt P11836 1-297).
T1 sequence (looked up): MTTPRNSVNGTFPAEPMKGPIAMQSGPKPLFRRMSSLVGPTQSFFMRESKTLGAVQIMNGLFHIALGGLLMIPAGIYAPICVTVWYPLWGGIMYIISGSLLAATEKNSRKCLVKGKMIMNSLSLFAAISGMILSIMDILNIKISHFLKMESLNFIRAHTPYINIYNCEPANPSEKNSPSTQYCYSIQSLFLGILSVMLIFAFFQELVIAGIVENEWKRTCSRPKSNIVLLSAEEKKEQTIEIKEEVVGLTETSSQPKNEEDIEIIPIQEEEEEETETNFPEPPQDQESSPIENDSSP
The experiment can be described thus: cell-based or functional assay.
Take B1: the “IC50, flow cytometry based human T cell mediated Ramos killing assay, E:T 10:1” value (shortened to “IC50 … E:T 10:1”) is 1.1 nM.

Turning to B2, the “IC50 … E:T 10:1” value was found to be 5.7 nM.

With B3, the “IC50 … E:T 10:1” value stood at 0.92 nM.

For B4, the “IC50 … E:T 10:1” value is 2.7 nM.

In the case of B5, the “IC50 … E:T 10:1” value came to 0.53 nM.

As to B6, the “IC50 … E:T 10:1” value was found to be 0.57 nM.

The target in a further experiment is T2, human CD3 expressed on HEK293H cells (human, UniProt P04234 22-171; P09693 23-182; P07766 23-207; P20963 22-164).
T2 construct: also called HEK293H human CD3; HEK293H CD3
T2 sequence (P04234 22-171 limits assumed, chain 1 of 4): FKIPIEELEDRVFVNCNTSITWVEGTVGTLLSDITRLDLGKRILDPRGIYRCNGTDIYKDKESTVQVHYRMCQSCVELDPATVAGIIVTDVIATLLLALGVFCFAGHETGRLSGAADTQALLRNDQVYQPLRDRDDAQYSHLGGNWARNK
T2 sequence (P09693 23-182 limits assumed, chain 2 of 4): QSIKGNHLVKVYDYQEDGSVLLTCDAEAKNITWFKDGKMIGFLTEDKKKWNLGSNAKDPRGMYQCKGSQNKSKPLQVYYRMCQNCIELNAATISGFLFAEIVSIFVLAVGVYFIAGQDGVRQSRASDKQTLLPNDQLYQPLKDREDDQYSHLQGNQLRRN
T2 sequence (P07766 23-207 limits assumed, chain 3 of 4): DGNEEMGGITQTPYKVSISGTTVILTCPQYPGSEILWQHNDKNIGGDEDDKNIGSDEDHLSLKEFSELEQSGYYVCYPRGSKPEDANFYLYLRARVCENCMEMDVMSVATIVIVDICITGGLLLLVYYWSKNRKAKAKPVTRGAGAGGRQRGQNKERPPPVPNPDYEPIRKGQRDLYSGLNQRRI
T2 sequence (P20963 22-164 limits assumed, chain 4 of 4): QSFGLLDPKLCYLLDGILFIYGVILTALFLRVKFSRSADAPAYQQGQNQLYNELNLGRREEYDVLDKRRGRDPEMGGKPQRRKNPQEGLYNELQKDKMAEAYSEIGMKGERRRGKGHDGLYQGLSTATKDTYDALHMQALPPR
Briefly: flow cytometry on HEK293H human CD3 cells, MCF. How it is done: (§1) Binding of purified monovalent anti-TCR Nanobodies to human TCR(2IAN)/CD3 expressed on HEK293H cells was evaluated and compared with the binding to HEK293H cells transfected with human CD3 in flow cytometry, as outlined in Example 5. Dilution series of anti-TCR Nanobodies starting from 1 μM were applied to the cells. The parental HEK293H cell line was included as TCR/CD3 negative cell line.
For orientation: In flow cytometry, cells or beads pass a laser one at a time.
Consider B7, for which the binding result is “no binding (tested: 1e-6 M)”.

The target of a further experiment is T3, T cell receptor alpha/beta on purified primary human T cells (human, UniProt P01848 1-140; P01850 1-176).
T3 construct: whole, on cells; also called human primary T cells
T3 TCR alpha (looked up): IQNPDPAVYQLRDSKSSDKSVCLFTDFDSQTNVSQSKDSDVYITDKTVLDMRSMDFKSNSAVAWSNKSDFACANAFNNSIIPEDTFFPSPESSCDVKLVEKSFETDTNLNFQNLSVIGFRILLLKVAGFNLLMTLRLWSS
T3 TCR beta (looked up): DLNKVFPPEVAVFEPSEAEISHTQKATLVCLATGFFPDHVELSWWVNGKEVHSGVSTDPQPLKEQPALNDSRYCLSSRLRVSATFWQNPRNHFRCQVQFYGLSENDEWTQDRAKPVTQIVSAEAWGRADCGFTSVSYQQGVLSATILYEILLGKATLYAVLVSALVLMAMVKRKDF
Briefly: flow cytometry, purified primary human T cells. How it is done:
Periplasmic extracts were screened for cell expressed TCR/CD3 binding using human TCR/CD3 transfected CHO-K1 or HEK293H cells and the respective CHO-K1 or HEK293H reference cell line in a mixed cell line setup. To this end, a large batch of the reference cell lines were labelled with 8 μM PKH26 and frozen. 5×10⁴ PKH labelled reference cells were mixed with 5×10⁴ target cells and incubated with periplasmic extracts for 30 min at 4′C, and washed 3 times. […] Samples were washed, resuspended in FACS Buffer (D-PBS from Gibco, with 10% FBS from Sigma and 0.05% sodium azide from Merck) and then analysed via a BD FACSArray. […] In this gate, 20,000 cells were counted during acquisition. Based on PKH26-SSC distribution, the PKH labelled parental population and the human TCR/CD3 unlabelled target population was selected. For these 2 populations the mean APC value was calculated.
Binding of purified monovalent anti-TCR Nanobodies to human TCR(2XN9)/CD3 expressed on CHO-K1 cells and to purified primary human T cells was evaluated in flow cytometry as outlined in Example 4.1.
In the case of B7, the EC50 (as a rule, the concentration at which the effect is half-maximal) is over 100 nM.

The target of a further experiment is T4, EGFR on cells (UniProt P00533 25-1210, limits assumed). The experiment can be described thus: cell-based or functional assay.
In the case of B8, the “IC50, xCELLigence human T cell mediated killing of HER14 cells, E:T 15, 50-60 h” value amounted to 0.14 nM.

A further experiment deals with T4, EGFR on cells. The experiment can be described thus: flow cytometry, HER14 cells.
B8 yielded an EC50 of 1.6 nM and a Top of 146000.

For the next experiment, the target named is T1, human CD20 on cells. Briefly: flow cytometry, Ramos cells.
Take B1: the EC50 turned out to be 23 nM.

B2: a half-maximal response (EC50) required 20 nM.

B3 yielded an EC50 of 16 nM.

B4 gave an EC50 of 21 nM.

Regarding B5, it took 1.8 nM to reach a half-maximal effect (EC50).

Molecule B6 returned an EC50 of 2.7 nM.

For another experiment, the target named is T5, T cell receptor alpha/beta on primary cynomolgus T cells (cynomolgus). The experiment can be described thus: cell-based or functional assay.
Turning to B1, the “IC50, xCELLigence cynomolgus T cell mediated CHO-K1 human CD20 killing assay, E:T 30:1” value amounted to 1.2 nM.

Take B2: the “IC50, xCELLigence cynomolgus T cell mediated CHO-K1 human CD20 killing assay, E:T 30:1” value was found to be 0.89 nM.

B3: the “IC50, xCELLigence cynomolgus T cell mediated CHO-K1 human CD20 killing assay, E:T 30:1” value turned out to be 0.12 nM.

In the case of B5, the “IC50, xCELLigence cynomolgus T cell mediated CHO-K1 human CD20 killing assay, E:T 30:1” value is 0.99 nM.

The next experiment has as its target T1, human CD20 on cells. The experiment can be described thus: cell-based or functional assay. The source holds these as a separate data set.
Turning to B1, the “IC50, xCELLigence human T cell mediated CHO-K1 CD20 killing assay, E:T 30:1, 44 h” value (shortened to “IC50 … 44 h”) is 2.1 nM.

With B2, the “IC50 … 44 h” value came out at 4.2 nM.

In the case of B3, the “IC50 … 44 h” value worked out at 1.5 nM.

B4: the “IC50 … 44 h” value worked out at 4.1 nM.

Turning to B5, the “IC50 … 44 h” value came out at 1.4 nM.

Turning to B6, the “IC50 … 44 h” value worked out at 27 nM.

A further experiment has as its target T2, human CD3 expressed on HEK293H cells. The experiment can be described thus: flow cytometry, HEK293H human CD3 cells. How it is done: as §1
Nanobodies clearly bound to human TCR(2IAN)/CD3 expressed on HEK293H but not to the HEK293H cells transfected with human CD3 only, nor to the HEK293H parental cell line. The EC50 values obtained from the dose response curve are depicted in Table C-2.
Turning to B7, the “MCF at 1 µM” value worked out at 495 MCF.

Another experiment deals with T3, T cell receptor alpha/beta on purified …. Briefly: flow cytometry, purified primary human T cells. This is another data set of the same source.
On to B1, for which the EC50 is 350 nM.

As for B2, a half-maximal response (EC50) required 230 nM.

For the molecule B3, the midpoint of the response, the EC50, lay at 190 nM.

The molecule B4 showed an EC50 of over 100 nM.

B5: the midpoint of the response, the EC50, lay at 130 nM.

B6 came in with an EC50 of over 100 nM.

The target in another experiment is T5, T cell receptor alpha/beta on primary …. The experiment can be described thus: cell-based or functional assay. This is another data set of the same source.
For B1, the “IC50, flow cytometry based cynomolgus T cell mediated B cell (Ramos) killing assay” value (“IC50 … (Ramos) killing assay” below) came out at 0.79 nM.

In the case of B2, the “IC50 … (Ramos) killing assay” value was 0.17 nM.

Take B3: the “IC50 … (Ramos) killing assay” value is 0.24 nM.

As for B5, the “IC50 … (Ramos) killing assay” value amounted to 0.569 nM.

Source of the values: US20190112392A1 (Ablynx, published 2019).
